Columns and labels:
[1] = biological target: T1, PV-3C main protease (Poliovirus, UniProt P03300 1566-1748); assay: NMR (SOFAST-HMQC CSP); 3C:RNA 1:0.5; conditions: protein: recombinant; tags: SUMO tag cleaved by ULP-1; 15N-labeled for NMR
[2] = biological target: T1, PV-3C main protease; assay: NMR (SOFAST-HMQC peak loss); conditions: protein: recombinant; tags: SUMO tag cleaved by ULP-1; 15N-labeled for NMR

T1 sequence (P03300 1566-1748): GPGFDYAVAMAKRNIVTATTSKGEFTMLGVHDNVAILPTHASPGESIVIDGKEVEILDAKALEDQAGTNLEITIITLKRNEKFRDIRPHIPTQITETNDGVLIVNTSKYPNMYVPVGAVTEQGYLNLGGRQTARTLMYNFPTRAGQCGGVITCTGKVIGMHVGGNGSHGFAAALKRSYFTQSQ

Binder | binding result [1] | binding result [2]
GGCGGCGUACUCCGG (ssRNA) [RNA-1] | binds | 
CAUACUGUUGUAGGGGAA (ssRNA) [RNA-2] |  | binds

— PMC12656920
